Results taken from patent US20030113828A1, “Compositions and methods for modulating Syk function” (priority 2001, published 2003).

B1: Zap-70(1-337): Zap-70 fragment containing both SH2 and interdomains A and B (protein)
chain: MPDPAAHLPFFYGSISRAEAEEHLKLAGMADGLFLLRQCLRSLGGYVLSLVHDVRFHHFPIERQLNGTYAIAGGKAHCGPAELCEFYSRDPDGLPCNLRKPCNRPSGLEPQPGVFDCLRDAMVRDYVRQTWKLEGEALEQAIISQAPQVEKLIATTAHERMPWYHSSLTREEAERKLYSGAQTDGKFLLRPRKEQGTYALSLIYGKTVYHYLISQDKAGKYCIPEGTKFDTLWQLVEYLKLKADGLIYCLKEACPNSSASNASGAAAPTLPAHPSTLTHPQRRIDTLNSDGYTPEPARITSPDKPRPMPMDTSVYESPYSDPEELKDKKLFLKRDNL
modifications: left off: a dimerising Fc or GST
notes: Zap-70 fragment containing both SH2 and interdomains A and B
B2: Zap-70(1-132): Zap-70 truncation lacking the C-terminal half of interdomain A (protein)
chain: MPDPAAHLPFFYGSISRAEAEEHLKLAGMADGLFLLRQCLRSLGGYVLSLVHDVRFHHFPIERQLNGTYAIAGGKAHCGPAELCEFYSRDPDGLPCNLRKPCNRPSGLEPQPGVFDCLRDAMVRDYVRQTWK

Target: T1, integrin β3 cytoplasmic tail (Homo sapiens, UniProt P05106)
T1 construct: made in house
T1 sequence (P05106 742-788 limits assumed): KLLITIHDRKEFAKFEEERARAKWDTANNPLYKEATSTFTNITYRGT
Experiment: Affinity chromatography/direct binding of kinase fragments to integrin tail
Details: recombinant fragments, direct binding assay
Procedure: Following incubation, beads were washed and bound protein was analyzed by immunoblotting.
For direct binding assays, model peptides (1 mg) were dissolved in 1 ml buffer containing 20 mM Tris (pH 7.9), 500 mM NaCl, and 6 M urea. To this, 50 ul packed His-Bind® Resin (Novagen, Madison, Wis.) was added and the mixture was rotated for 1 hour at room temperature. Immobilized peptides were washed 5× in above buffer without urea, and resuspended in 500 μl buffer containing 20 mM PIPES pH 6.8, 50 mM NaCl, 3 mM MgCl2, 150 mM sucrose, 50 mM NaF, 40 mM Na4P2O7*10H2O (buffer A) supplemented with 0.1% TritonX-100 and 3 mM MgCl2. Purified GST-fusion proteins were added to 0.5 ml buffer A supplemented with 0.1% TritonX-100 and 3 mM MgCl2. Five μl of total packed resin loaded with various integrin cytoplasmic domain model proteins was added to the GST-fusion protein. The mixture was incubated for 40 minutes at room temperature with continuous rotation. The beads were then washed five times in buffer A with 0.1% TritonX-100 and 3 mM MgCl2. Bound proteins were eluted by boiling in reducing sample buffer, fractionated by SDS PAGE, and immuno-blotted.

Row | Molecule | binding to the β3 tail
1 | B1 | bound
2 | B2 | decrease in binding
